For 32 variants, self-cleavage results are on record in the RNAGym collection of RNA variant scans (doi:10.7554/elife.80360).

The labels stand for the following.
B1: HDV Ribozyme (parent)
chain: GGCCGGCAUGGUCCCAGCCUCCUCGCUGGCGCCGGCUGGGCAACAUUCCGAGGGGACCGUCCCCUCGGUAAUGGCGAAUGGGACCCA

The variants in the series derive from B1. As to the kind of experiment: self-cleavage, relative activity (ratio to wild type); higher = more cleavage; co-transcriptional.
For the variant GGCCGGCAUGGUCCCAGCCUCCUCGCUGGCGCCGGCUGGGAAACAUUCCGAGGGGACCGUCCCCUCCGUAAUGGCGAAUGGGACCCA [C41A G67C], the self-cleavage was 0.525.

With GGCCGGCAUGGUCCCAGCCUCCUCGCUUGCGCCGGCUGGGCAACAUUCCGAGGGGACCGUCCCCUCGGUAAUGGCGAAUGGGACGCA [G28U C85G], the self-cleavage was 0.108. Consider GGCCGGCAUGGUCCCAGCCUCCUCGCUGUCGCCGGCCGGGCAACAUUCCGAGGGGACCGUCCCCUCGGUAAUGGCGAAUGGGACCCA [G29U U37C], for which the self-cleavage is 0.208. For GGCCGGCAUGGUCCCAGCCUCCUCGCUGGCGCCGGCUGGGCAACAUACCGAGGGGACCGUCCCCUCGGUAAUGGCGAAUGGGACCCA [U47A] the value was 0.958. For GGCCCGCAUGGUCCCAGCCUCCUGGCUGGCGCCGGCUGGGCAACAUUCCGAGGGGACCGUCCCCUCGGUAAUGGCGAAUGGGACCCA [G5C C24G] the value was 0; for GGCCGGCAUGGUCCCAGCUUCCUUGCUGGCGCCGGCUGGGCAACAUUCCGAGGGGACCGUCCCCUCGGUAAUGGCGAAUGGGACCCA [C19U C24U], 0.101. As for GGCCGGCAUGGUCCUAGCCUCCUCGCUGGCGCCGGCUGGGCAACAUUCCGAGGGGACCGUCCGCUCGGUAAUGGCGAAUGGGACCCA [C15U C63G], the self-cleavage came out at 0.776. For GUCCGGCAUGGUCCCAGCCUCCUCGCUGGCGCCGGCUGGGCAACAUUCCGAGGGAACCGUCCCCUCGGUAAUGGCGAAUGGGACCCA [G2U G55A], the self-cleavage amounted to 0.0732. Take GGCCGGCAUGGUCCCAGCCUCCUCGCUGGCGCCGGCUGGGCAACAUUCCACGGGGACCGUCCCCUCGGUAAUGGCGAAUGGGACCCA [G50A A51C]: the self-cleavage came out at 0.991.

As to GGCUGGCAUGGUCCCAGCCUCCUCGCUGGCGCCGGCUGGGCAACAUUCCGAGGGGACCGUCCCCUCGGUAAUGGCGAAUUGGACCCA [C4U G80U], the self-cleavage is 0.0683. For GGCCGGCAUGGUCCCAGCCUCCUCGCUGGCGCCGCCUGGGCAACACUCCGAGGGGACCGUCCCCUCGGUAAUGGCGAAUGGGACCCA [G35C U46C] the value was 0.185. As to GGCCGGCAUGGUCCCAGCCUCCUCGCUGGCGCCGGCUGGGCAACAUUCCGAGGGGACCAUCCCCUCGGUAAUGGCGAAUGCGACCCA [G59A G81C], the self-cleavage amounted to 0.228.

For GGCCGGCAUGGUCCCAGCCUCCUCGCUUGCGCCGGCUGGGCAAGAUUCCGAGGGGACCGUCCCCUCGGUAAUGGCGAAUGGGACCCA [G28U C44G], the self-cleavage came to 0.111. Take GGCCGGCAUGGUCCCAGCCUCCUCGGUGGCGCCGGCUGGGCAACAUUCCGAGGGGACCGUCCCCUCGCUAAUGGCGAAUGGGACCCA [C26G G68C]: the self-cleavage turned out to be 1.07. The same measure for GGCCGGCAUGCUCCCAGCCUCCUCGCUGGCGCCGGCUGGGCAACAUUCCGAGGGGACCGUCCCCUCGGUAUUGGCGAAUGGGACCCA [G11C A71U]: 0.252.

As for GGCCGGCAUGGUCCCAGCCUCCUCGCUGGCGCCGGCUGGGCAACAUUCCCAGGGGACCGUCCCCUCGGUAAUGGCGAAAGGGACCCA [G50C U79A], the self-cleavage worked out at 0.739.

As for GGCCGGCAUGGUCCCAGCCUCCUCGCUGGCGCCGGCUGGGCAACAUUCCGAGGGGACCGGCCCCUCGGUAAUGGCGAAUGGGUCCCA [U60G A83U], the self-cleavage came to 0.415. In the case of GGCCGGCAUGGUCCCAGCCUCCUCGCUGGCGCCGGCUGGGCAACAUUCCGAGGGGACCGUCCCCUCGGUAACUGCGAAUGGGACCCA [U72C G73U], the self-cleavage was 0.272.

Turning to GGCCGGCAUGGUCCCAGCCCCCUCGCUGGCGCCGCCUGGGCAACAUUCCGAGGGGACCGUCCCCUCGGUAAUGGCGAAUGGGACCCA [U20C G35C], the self-cleavage turned out to be 0. As to GGCCGGCAUGGUCCCAGCCUCCUCGCUGGCGCCGGCUGGGCAACAUUCCGAGGGGACCGUCCCCUCAGUAAUGGCGAAUGGGACUCA [G67A C85U], the self-cleavage is 1.03. On to GGCCGGCAUGGUCCCAGCCUCCUCGCUUGCGCCGGCUGGGCAACAUUCCGAGGGGACCGUCCCCUGGGUAAUGGCGAAUGGGACCCA [G28U C66G], for which the self-cleavage was 0.277. On to GGCCGGCAUGGUCCCAGCCUCCUCGCUGGCGCCGGCUUGGCAACAUUCCGAGGGGACCGUCCCCUCGUUAAUGGCGAAUGGGACCCA [G38U G68U], for which the self-cleavage came to 0.119.

Regarding GGCCGUCAUGGUCCCAGCCUCCUCGCUGGCGCCGGCUGGGCAACAUUCCGAGGGGACCGUCCCCUCGGGAAUGGCGAAUGGGACCCA [G6U U69G], the self-cleavage stood at 0.375. For the variant GGCCGGCAUGGUCCCAGCCUCCUCGCUGGCGCCGGCUGGGCAACAUUCCGAGGGGACCGUCCCCUCGAUAAUGGCGCAUGGGACCCA [G68A A77C], the self-cleavage was 0.155. Take GGCCGGCAUGGUCCCAGCCUCCUCGCUGGCGCCGGCUCGGCAACAUUCCGAGGGGACCGUUCCCUCGGUAAUGGCGAAUGGGACCCA [G38C C61U]: the self-cleavage is 0.136.

Consider GGCCGGCAUGGUCCCAGCCUCCUCGCUGGCGCCGGCUGGGCAACGUUGCGAGGGGACCGUCCCCUCGGUAAUGGCGAAUGGGACCCA [A45G C48G], for which the self-cleavage is 1.23. For GGCCGGCAUGGUCCCAGCCUCCUCGCUGGCGCCGGCUGGGCAACAUUCCGAGGGGACCGACUCCUCGGUAAUGGCGAAUGGGACCCA [U60A C62U] the value was 1.08; for GGCCGGCAUGGUCCCAGCGUCCUCGCUGGCCCCGGCUGGGCAACAUUCCGAGGGGACCGUCCCCUCGGUAAUGGCGAAUGGGACCCA [C19G G31C], 0.104. GGCCGGCAUGGUCCCAGCCUCCUCGCUGGCGCCGGCUGGGCAACAUUCCGAGGGGACCGUCCCCUCGGUAAGGGCGAAUGGAACCCA [U72G G82A]: the self-cleavage amounted to 0.0978. Turning to GGCCGGUAUGGUCCCAGCCUCCUCGCUGGCGCCGGCUGGGCAACAUUCCCAGGGGACCGUCCCCUCGGUAAUGGCGAAUGGGACCCA [C7U G50C], the self-cleavage stood at 0.689. The same measure for GGCCGGCAUGGUCCCAGCCUCUUCGCUGGCGCCGGCUGGGCAACAUUCCGAGGGGACCGUCCCCUCGGAAAUGGCGAAUGGGACCCA [C22U U69A]: 0.554; for GGCCGGCAUGGUCCCAGCCUCCUCGCUGGCGCCGGCUGGGCAACAUUCCGAGGGGACCGUACCCUCGGUAAUGGUGAAUGGGACCCA [C61A C75U]: 0.178.
